Test results as given in patent publication US20210130491A1 (ONCOTAG DIAGNOSTICS, published 2021).

Key:
[1] = biological target: T1, AIMP3 (aminoacyl tRNA synthetase complex-interacting multifunctional protein 3) (Homo sapiens (Human), UniProt O43324 1-174, limits assumed); experiment: SPR, CM5 chip coated with AIMP3, antibody flowed at 0.20 to 200 nM
T1 construct: How the AIMP3-alone protein for SPR and screening was made is not described; also called p18
T1 sequence: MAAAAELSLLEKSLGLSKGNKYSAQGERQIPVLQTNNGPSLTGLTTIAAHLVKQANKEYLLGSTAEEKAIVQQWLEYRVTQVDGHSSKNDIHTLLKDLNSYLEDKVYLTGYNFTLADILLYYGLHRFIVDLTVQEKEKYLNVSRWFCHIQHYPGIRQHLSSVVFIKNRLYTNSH
Protocol: Surface plasmon resonance (SPR) experiments were carried out using 1E8 and 8A12 antibodies and MRS+AIMP3 protein obtained in Example 1.
CM5 chips were coated with MRS+AIMP3 or AIMP3 proteins and 1E8 or 8A12 antibodies were flowed at various concentrations to measure the degree of binding reaction with the proteins. Samples or buffers were injected for 8 minutes at a flow rate of 30 μl/min and washed for 20 minutes.

His-WRS = biological target: T2, His-WRS (UniProt P23381 1-471, limits assumed); experiment: ELISA, protein coated at 1 ug/ml
T2 construct: not shown: His tag
T2 sequence (looked up): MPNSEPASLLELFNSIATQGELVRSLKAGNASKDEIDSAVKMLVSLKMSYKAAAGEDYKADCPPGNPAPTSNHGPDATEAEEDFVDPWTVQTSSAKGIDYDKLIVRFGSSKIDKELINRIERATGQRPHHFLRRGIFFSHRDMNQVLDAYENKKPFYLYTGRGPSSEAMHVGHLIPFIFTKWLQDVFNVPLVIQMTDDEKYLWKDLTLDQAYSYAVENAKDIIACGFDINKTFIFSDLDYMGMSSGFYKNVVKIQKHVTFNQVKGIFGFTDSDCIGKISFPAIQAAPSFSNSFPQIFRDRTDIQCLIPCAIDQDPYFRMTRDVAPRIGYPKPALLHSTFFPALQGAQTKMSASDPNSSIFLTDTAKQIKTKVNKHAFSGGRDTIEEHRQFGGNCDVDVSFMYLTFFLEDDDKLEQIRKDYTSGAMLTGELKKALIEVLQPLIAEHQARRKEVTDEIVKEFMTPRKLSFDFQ
Protocol: Each well of 96 well plates (Corning 3690 flat bottom, 96-well half-area plates) was coated with different kinds of ARS proteins (His-MRS, MRS full, DX2 tag free, 34S-DX2, 34S-AIMP2, His-CRS, His-AIMP1, His-GRS, His-WRS, His-KRS) at the concentration of 1 μg/ml. 1E8 and 8A12 antibodies at a concentration of 500 ng/ml were added onto the 96 well plates coated with ARS proteins and allowed to react for 1 hour. Thereafter, HRP-conjugated anti-mouse IgG secondary antibody was added and reacted for 1 hour. ELISA was performed and absorbance was measured at 450 nm. TMB (3,3′,5,5′-tetramethylbenzidine) was used as substrate.

[2] = biological target: T3, MRS fragment 2 (267~417 aa); experiment: western blot of lysates of H460 cells transfected with Myc-tagged MRS fragments
T3 construct: Expressed in H460 cells from pcDNA3; also called lane 2
T3 single chain: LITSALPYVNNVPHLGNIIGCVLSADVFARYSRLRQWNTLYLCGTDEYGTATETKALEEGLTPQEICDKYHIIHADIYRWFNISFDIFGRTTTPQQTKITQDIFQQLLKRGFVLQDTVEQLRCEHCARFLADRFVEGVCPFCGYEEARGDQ
Protocol: (§1) Six fragments of different lengths and positions were prepared based on the GST, catalytic domain, and tRNA binging domains of the MRS protein, and MRS protein and each of the MRS fragments were cloned into pcDNA3 vector (EV). At this time, since Myc protein is linked to the N-terminus of MRS protein, Myc protein was used as a control.
(§2) Then, 2 μg of the cloned vector DNA were transfected into H460 cells using Turbofect (Thermo) according to the manufacturer's instructions. After 24 hours, cells were harvested and subjected to western blot. 1E8 antibody and 8A12 antibody were diluted 1:5000 (0.2 μg/mL) as the primary antibody.

[3] = biological target: T4, MRS fragment 3 (267~597 aa); experiment: as above
T4 construct: Expressed in H460 cells from pcDNA3; also called lane 3
T4 single chain: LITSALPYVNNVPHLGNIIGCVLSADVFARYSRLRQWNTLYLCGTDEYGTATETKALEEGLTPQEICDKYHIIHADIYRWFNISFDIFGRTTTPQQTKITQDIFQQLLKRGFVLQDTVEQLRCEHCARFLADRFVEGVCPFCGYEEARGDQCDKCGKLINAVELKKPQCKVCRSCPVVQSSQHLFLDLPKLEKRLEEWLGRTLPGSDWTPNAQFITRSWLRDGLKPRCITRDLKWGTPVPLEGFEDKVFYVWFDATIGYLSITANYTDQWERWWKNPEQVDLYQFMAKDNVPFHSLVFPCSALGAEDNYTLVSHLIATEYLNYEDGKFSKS
Protocol: as §1, §2

[4] = biological target: T5, MRS fragment 4 (1~597 aa); experiment: as above
T5 construct: Expressed in H460 cells from pcDNA3; also called lane 4
T5 single chain: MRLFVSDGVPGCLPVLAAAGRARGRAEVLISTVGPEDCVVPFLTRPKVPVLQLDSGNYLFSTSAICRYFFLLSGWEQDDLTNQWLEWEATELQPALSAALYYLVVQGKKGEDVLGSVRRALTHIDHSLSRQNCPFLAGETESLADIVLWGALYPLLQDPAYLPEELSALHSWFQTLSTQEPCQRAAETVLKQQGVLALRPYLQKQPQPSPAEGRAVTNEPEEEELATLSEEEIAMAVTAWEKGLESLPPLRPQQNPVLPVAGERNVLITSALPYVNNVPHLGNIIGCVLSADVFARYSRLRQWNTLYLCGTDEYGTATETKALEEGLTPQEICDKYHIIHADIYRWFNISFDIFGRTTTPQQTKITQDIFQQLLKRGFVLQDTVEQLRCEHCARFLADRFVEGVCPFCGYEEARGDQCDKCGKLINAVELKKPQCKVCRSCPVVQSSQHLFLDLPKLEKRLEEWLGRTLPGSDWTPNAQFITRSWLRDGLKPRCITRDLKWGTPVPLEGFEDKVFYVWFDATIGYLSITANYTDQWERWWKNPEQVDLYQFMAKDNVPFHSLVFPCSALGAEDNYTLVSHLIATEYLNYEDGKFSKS
Protocol: as §1, §2

| Binder | binding result [1] | binding result (His-WRS) | binding result [2] | binding result [3] | binding result [4] |
| --- | --- | --- | --- | --- | --- |
| 8A12 antibody (8A12 IgG) (antibody, V domains shown, Mouse monoclonal from hybridoma clone 8A12; also called 8Al2; anti-MRS antibody (8A12)) VH: DVKLQESGPGLVKPSQSLSLTCTVTGYSITSEYAWTWIRQFPGNKLEWMGYINYNGNTNLNPSLKSRISIIRDTSKNQFFLQLNSVTTEDTATYYCARSLWPRGWFAYWGQGTLVTVSA VL: DIQMTQSPSSMYASLGERVTITCKASQDINSYLSWFQQKPGKSPKTLMYRANRLVDGVPSRFSGSGSGQDYSLTISSLEYEDMGIYYCLQYDEFPRTFGGGTKLEIKA | no binding (tested: 200 nM) | no binding (tested: 500 ng/ml) | no binding (tested: 0.2 µg/mL (1:5000, from paragraph 148)) | no binding (tested: 0.2 µg/mL (1:5000, from paragraph 148)) | no binding (tested: 0.2 µg/mL (1:5000, from paragraph 148)) |
| 1E8 antibody (1E8 IgG) (antibody, V domains shown, Mouse monoclonal from hybridoma clone 1E8; also called IE8; anti-MRS antibody (1E8)) VH: DVKLQESGPGLVNPSQSLSLTCTVTGYSITSDYAWNWIRQFPGNKLEWMGYISYSGRTSYKSSLKSRISITRDTSKNQFFLELNSVTTEDTATYYCARDYGNFVGYFDVWGAGTTVTVSS VL: DIVMTQSPSSLAVSVGEKVTMSCKSSQSLLYSSNQKNYLAWYQQKPGQSPKLLIYWASTRESGVPDRFTGSGSGTEFTLTISSVKAEDLAVYYCQQYYSYPTFGGGTKLEIKA | no binding (tested: 200 nM) | no binding (tested: 500 ng/ml) | no binding (tested: 0.2 µg/mL (1:5000, from paragraph 148)) | no binding (tested: 0.2 µg/mL (1:5000, from paragraph 148)) | no binding (tested: 0.2 µg/mL (1:5000, from paragraph 148)) |
